System: DosR (phosphorylated) (Mycobacterium tuberculosis)
Assay: EMSA

hspX promoter probe
binding signal (fold inhibition of binding vs DMSO): 22

From publication doi:10.1101/411793
